Laboratory results published in US10054602B2, “Conjugate of estradiol and applications thereof” (CHRIST UNIVERSITY, priority 2016, dated 2018).
“Also recorded” adds a separate entry of the source. Like-named read-outs stand apart in the source and are kept apart here. Each block holds one compound with its values, some of them ahead of it.

Legend:
MCF-7 cells = experiment: inhibition of nuclear entry of estrogen conjugated dye in MCF-7 cells; assay type: cell-based, Human
Procedure: The estrogenic activity is examined using human mammary carcinoma MCF-7 cells. The cells are cultured with various concentrations of Diethylstilbestrol (DES) and estrogen conjugated dye for more than 5 days and then the cells were counted.
A very clear distinction on non-specific binding is observed and the binding is only seen in the cytoplasm.

[1] = tissue kinetics in tumor tissue after injecting; assay type: in vivo; details: for half-life: in tumor tissue, read-out: tissue-efflux half-life
[2] = optical properties of dye (absorption, emission, quantum yield); assay type: physicochemical; details: for absorption maxima (wavelength): solvent not stated; for Quantum yield φ: ICG as standard
Procedure: The increased fluorescence quantum yield of the hydrophilic derivatives reduces the risk of the forming fluorescence-quenched aggregation. […] Thus the conjugate can be used for tagging estradiol because of its ability to form monoderivatized activated precursors as it has a carboxylic group which can be tailored to attach to functional groups of biomoloecules like estradiol.
The excitation and emission peaks for the conjugate are recorded in the NIR region as 757 nm and 788 nm respectively. The potential of the compound in the application as contrast agents for fluorescence imaging modalities, where the fluorescence emission of the dye is expected to be detectable in high sensitivity above low tissue background is analysed on the breast cancer cell lines MCF-7/MDA-MB-231.

MCF-7 [ER+] cells = experiment: NIRF staining / confocal laser microscopy of MCF-7 cells; assay type: cell-based, Human; details: for cellular localisation / binding of fluorescence: MCF-7 (ER+), confocal microscopy, 1 μM
Procedure: (§1) Human breast cancer cell lines MCF-7 [ER+] and MDA-MB-231 [ER-] are obtained from National Centre for Cell science (NCCS (Pune)). The cells are cultured, revived and the experiments are carried out at Advanced Centre for Treatment, Research and Education in Cancer (ACTREC) of Tata Memorial Centre (Mumbai).
(§2) MCF-7 and MDA-MB-231 cells are cultured in DMEM/F12 medium without phenol red (ACTREC, Mumbai) supplemented with 10% fetal bovine serum. Cells in suspension (50 μl) are added to each well of a 96-well culture plate for a final concentration of 1×10^3 Cells/well and incubated for 24 h at 37° C. in carbon dioxide chamber.
The NIRFDC with initial concentration of 24.5 mg/2 ml of DMSO solution is added to each well, and the cultures further incubated for 2 h. The cells are treated at different concentration levels of 1:10, 1:50, 1:100, 1:500 and 1:1000 of DMSO. The cells were then re-suspended in 100 μl of 0.04N HCl/isopropanol solution.
Cell smears are prepared by rolling the swab across the top half of the well of a microscope slide. The opposite side of the swab is rolled over the bottom half of the well. There after the slide is allowed to air dry completely. Then the slide is fixed in chilled (2° to 8° C.) acetone for 10 minutes, which is further removed and allowed to air dry completely. Slides are stored at ≤−20° C. with desiccant. On completion, the cells are re-suspend to at least 400 μL in phosphate buffered saline and 200 μL is applied to each slide by cento-centrifugation at 800 rpm for 4 minutes [Br. J Cancer. 58:77-80, (1988)]. This procedure is repeated for fixing both the cell lines.
The smears are stained with the conjugate at different dilutions of 1:10, 1:50, 1:100, 1:500 and 1:1000 and incubated for an hour at about 25° C. Thereafter these cells are given 3 washes of phosphate buffered saline, mounted with DPX (Distrene Plasticyser Xylene) covered and imaged using the Olympus Confocal microscope.
MCF-7 cells maintained at 37° C. in a 5% CO2 atmosphere in phenol red-free minimal essential medium (MEM) containing 10% charcoal stripped calf serum and penicillin, streptomycin, glutamine, are incubated for 4 days in 24 multiwells (NUNC). After 4 days of culture, the medium is removed and the cells are incubated for 1 hour at 37° C. with […] at concentrations ranging from 0.3 nM to 1 nM. Medium is removed and the cells are washed twice with phosphate buffer saline (PBS). 250 μl of absolute ethanol is added to each well (exposition during 20 min).
The in-vitro studies are carried out using the inverted lens Olympus Fluo-View Confocal Microscope. The sample is excited at 754 nm and the emissions are observed using PMT having relatively higher quantum efficiency in the NIR-region.
(§3) These cells retained several characteristics of differentiated mammary epithelium including ability to process estradiol via Nuclear and cytoplasmic estrogen receptors and the capability of forming domes. MBA-MB-231 breast cancer cell lines are used as the control. […] The nuclear staining is pivotal towards early detection of cancer as 80% of the breast cancer reported are ER+ and could be detected by this characteristic feature. […]
In-vitro fluorescence signal of malignant cells bearing estrogen receptor positive with the control (cells without intracellular estrogen receptors) are studied. Fluorescence intensity generated by the NIRF Dye-Conjugate in particular to the nucleus and the entire cell is plotted as shown in the (FIG. 6 A, B). […]

[3] = ICG as standard; cited from earlier work
plasma protein binding = assay type: in vitro ADME
[4] = partition coefficient studies; assay type: physicochemical
[5] = target: T1, Estrogen receptor (ER) in human breast cancer tissues (Homo sapiens, UniProt P03372); experiment: ER staining of breast carcinoma tissue sections; details: Non-invasive Ductal, Lobular, Adenocarcinoma and Medullary Carcinoma
T1 construct: from tissue; host or cells: human breast carcinoma tumor tissue, formalin-fixed paraffin sections
T1 sequence (P03372 whole entry): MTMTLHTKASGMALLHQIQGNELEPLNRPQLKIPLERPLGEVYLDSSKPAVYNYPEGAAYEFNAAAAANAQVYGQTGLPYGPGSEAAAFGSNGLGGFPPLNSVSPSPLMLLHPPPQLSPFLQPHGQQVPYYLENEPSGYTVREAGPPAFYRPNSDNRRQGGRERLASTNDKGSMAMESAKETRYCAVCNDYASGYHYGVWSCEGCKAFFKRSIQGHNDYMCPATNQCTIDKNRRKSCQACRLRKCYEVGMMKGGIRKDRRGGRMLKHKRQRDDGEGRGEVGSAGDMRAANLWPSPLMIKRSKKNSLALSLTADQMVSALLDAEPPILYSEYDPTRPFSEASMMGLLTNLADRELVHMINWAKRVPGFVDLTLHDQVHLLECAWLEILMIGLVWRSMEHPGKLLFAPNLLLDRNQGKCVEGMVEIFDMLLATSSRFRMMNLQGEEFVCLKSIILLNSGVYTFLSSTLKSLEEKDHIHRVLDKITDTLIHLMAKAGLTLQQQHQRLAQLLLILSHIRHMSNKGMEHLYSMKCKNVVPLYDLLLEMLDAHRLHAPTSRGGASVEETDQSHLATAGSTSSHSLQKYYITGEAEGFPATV
Procedure: The avidin-biotin-peroxidase complex method is used for the paraffin sections fixed in cold buffered formalin and the results are compared with the ER content in the respective tumor tissue. The specific staining for ER is located exclusively in the nuclei of cancer cells in paraffin sections.
The tumor pieces are fixed in buffered formalin (0.1 M sodium phosphate, pH 7.4/10% formalin) for 24 hr at […]. After being rinsed overnight at […]. in 0.1 M sodium phosphate (pH 7.4), they are dehydrated with graded ethanol and embedded in paraffin. Paraffin sections (4 μm) are cut, deparaffinized with xylene, and rinsed thoroughly with absolute ethanol. Then they are soaked in absolute methanol containing 0.3% H2O2 for 30 min at 25° C. to decrease the endogenous peroxidase activity. The sections were washed three times with 50 mM Tris-HCl, pH 7.6/137 mM NaCl (Tris/NaCl) and were incubated with serum (10% in Tris/NaCl) for 30 min at 25° C. so as to reduce the nonspecific staining. Excess serum is removed by blotting. I˜g/ml) or with normal rat IgG (10 A·g/ml) for 30 min at 37° C. After being washed with Tris/NaCl. […]

cell lines = experiment: toxic effect on the cell lines; assay type: cell-based; details: glucosammonium ion in place of sodium ion
MDA-MB-231 [ER-] cells = experiment: NIRF staining / confocal laser microscopy of MDA-MB-231 control cells; assay type: cell-based, Human; details: 1 μM
Procedure: as §1
as §2, with “chamber. […]” for “chamber.”
as §3, with “domes.” for “domes. MBA-MB-231 breast cancer cell lines are used as the control.”
The cell lines are not controlled by the estrogen and lack the estrogen activity in the nucleus. After additional incubation under conditions permitting membrane traffic and thus endocytosis, fast and thorough internalization of ligand-receptor complexes into an intracellular compartment could be detected. […]

Compound: CC/C(=C(/CC)c1ccc(O)cc1)c1ccc(O)cc1 [Diethylstilbestrol]
blocking of entry of the estradiol conjugate into the nucleus (MCF-7 cells): inhibited the entry of the estradiol into the nucleus
blocking of entry of the estradiol conjugate into the nucleus (MCF-7 cells; listed as DES): blocking operation of the estrogen conjugated dye from entering the nucleus

half-life ([1]; other: injection (type not specified)): < 0.167 h
absorption maxima (wavelength) [2]: 780
Compound: CC1(C)C(/C=C/C=C/C=C/C=C2\N(CCCCS(=O)(=O)O)c3ccc4ccccc4c3C2(C)C)=[N+](CCCCS(=O)(=O)[O-])c2ccc3ccccc3c21 [ICG, Indocyanine Green, reference compound]
cellular localisation / binding of fluorescence (MCF-7 [ER+] cells): only stains the cells without entering the nucleus of the cell
quantum yield φ of the standard [3]: 0.13

Compound: CC/C(=C(\c1ccccc1)c1ccc(OCCN(C)C)cc1)c1ccccc1 [Tamoxifen]
blocking of entry of the estradiol conjugate into the nucleus (MCF-7 cells): inhibited the entry of the estradiol into the nucleus; also recorded: blocking operation of the estrogen conjugated dye entering the nucleus

Compound: CC1(C)C(/C=C/C=C/C=C/C=C2\N(CCCCS(=O)(=O)O)c3ccc(C(=O)Oc4ccc5c(c4)CCC4C5CC[C@@]5(C)C4CC[C@@H]5O)cc3C2(C)C)=[N+](CCCCS(=O)(=O)[O-])c2ccc(C(=O)Oc3ccc4c(c3)CCC3C4CC[C@@]4(C)C3CC[C@@H]4O)cc21 (stereo partly drawn) [conjugate]
initial tissue absorption coefficient compared to ICG ([1]; in vivo): two-fold higher
half-life ([1]; other: injection (kind of injection not stated)): 1.22 h
tumor-to-tissue concentration gradient ([1]; up to one hour after injecting): elevated tumor-to-tissue concentration gradient for up to one hour after injecting
fraction unbound (plasma protein binding): > 0.5
partition coefficient [4]: less than 0.005
ER staining of carcinoma tissue [5]: ER staining which are confined to the nuclei
Stokes' shift of fluorescence maximum [2]: 38 nm
Strokes' shift ([2]; DMSO): 30
λmax absorption ([2]; DMSO): 757 nm
λmax emission ([2]; DMSO): 787 nm
Quantum yield φ ([2]; DMSO): 0.114
emission peak ([2]; NIR region): 788 nm
excitation peak ([2]; NIR region): 757 nm
Strokes' shift ([2]; PBS): 33
λmax absorption ([2]; PBS): 755 nm
λmax emission ([2]; PBS): 788 nm
Quantum yield φ ([2]; PBS): 0.110
enhancement of fluorescence quantum yields with respect to ICG ([2]; physiological environment): 7-15%
absorption maxima (wavelength) [2]: 757
toxic effect on the cell lines (cell lines): reduce the toxic effect on the cell lines
signal intensity of MCF-7 cells compared to MDA-MB-231 (MCF-7 [ER+] cells; 24 h): ~2.4 fold
cellular localisation / binding of fluorescence (MCF-7 [ER+] cells): specific high affinity binding sites of estrogen molecule on to the nucleus and membrane
cellular localisation / binding of fluorescence (MCF-7 [ER+] cells; listed as NIRFD-conjugate): majority of the receptor-associated fluorescence co-localized at the Nucleus and a minority in the plasma membrane
cellular localisation / binding of fluorescence (MCF-7 [ER+] cells; listed as NIRFDC): very clear localization of conjugated dye in the nucleus; also recorded: significant amount of binding is seen in the nucleus
cellular localisation / binding of fluorescence (MDA-MB-231 [ER-] cells): only the plasma membrane staining
cellular localisation / binding of fluorescence (MDA-MB-231 [ER-] cells; listed as NIRFDC): poor binding of conjugate into the nucleus
